Assay results taken from the RNAGym collection of RNA variant scans (doi:10.7554/elife.90254).

B1: OR4K15 (parent)
chain: GUUAACGGUCAUAGGCCAUGGAAACUAGGAGCACCAUUUCGCUGCCAGUGAAGAAAUGAACAAAGAAAAUCUGGGCCAGGCAGGCAUCAAAAGAAAUAGUCUUGCGCUCAACCAGAAAGUCUGUAAUCAUUUUAAGGGUA

Variants of: B1
Assay: self-cleavage, relative activity (ratio to wild type); higher = more cleavage; in vitro, sequencing; the parent is a self-cleaving ribozyme

Variant	self-cleavage
GUUAACGGUCAUAGGCCAUGGAAACUAGGAGCACCAUUUCGCUGCCAGUGAAGAAAUGAACAAAGAAAAUCUGGGCCAGGCAGGCAUCAAAAGAAAUAGUCUUGCGCUCAACCAGAAAGUCUGUAAUCAUUCUAAGGGCA	1.81
GUUAACGGUCAUAGGCCAUGGAAACUAGGAGCACCAUUUCGCUGCCAGUGAAGAAAUGAACAAAGAAAAUCUGGGCCAGGCAGGCAUCAAAAGAAAUAGUCUUGCGCUCAACCAGAAAGUCUGUAAUCAUUAUAAGGGUA	1.53
GUUAACGGUCAUAGGCCAUGGAAACUAGGAGCACCAUUUCGCUGCCAGUGAAGAAAUGAACAAAGAAAAUCUGGGCCAGGCAGGCAUCAAAAGAAAUAGUCUUGCGCUCAACCAGAAAGUCUGUAAUCAUUGUAAGGGUA	0.89
GUUAACGGUCAUAGGCCAUGGAAACUAGGAGCACCAUUUCGCUGCCAGUGAAGAAAUGAACAAAGAAAAUCUGGGCCAGGCAGGCAUCAAAAGAAAUAGUCUUGCGCUCAACCAGAAAGUCUGUAAUCAUUCUAAGGGUA	1.05
GUUAACGGUCAUAGGCCAUGGAAACUAGGAGCACCAUUUCGCUGCCAGUGAAGAAAUGAACAAAGAAAAUCUGGGCCAGGCAGGCAUCAAAAGAAAUAGUCUUGCGCUCAACCAGAAAGUCUGUAAUCAUUAUAAGGGUU	0.14
GUUAACGGUCAUAGGCCAUGGAAACUAGGAGCACCAUUUCGCUGCCAGUGAAGAAAUGAACAAAGAAAAUCUGGGCCAGGCAGGCAUCAAAAGAAAUAGUCUUGCGCUCAACCAGAAAGUCUGUAAUCAUUCCAAGGGUA	1.1
GUUAACGGUCAUAGGCCAUGGAAACUAGGAGCACCAUUUCGCUGCCAGUGAAGAAAUGAACAAAGAAAAUCUGGGCCAGGCAGGCAUCAAAAGAAAUAGUCUUGCGCUCAACCAGAAAGUCUGUAAUCAUUUCGAGGGUA	0.26
GUUAACGGUCAUAGGCCAUGGAAACUAGGAGCACCAUUUCGCUGCCAGUGAAGAAAUGAACAAAGAAAAUCUGGGCCAGGCAGGCAUCAAAAGAAAUAGUCUUGCGCUCAACCAGAAAGUCUGUAAUCAUUUCAGGGGUA	0.03
GUUAACGGUCAUAGGCCAUGGAAACUAGGAGCACCAUUUCGCUGCCAGUGAAGAAAUGAACAAAGAAAAUCUGGGCCAGGCAGGCAUCAAAAGAAAUAGUCUUGCGCUCAACCAGAAAGUCUGUAAUCAUUAUAGGGGUA	0.87
GUUAACGGUCAUAGGCCAUGGAAACUAGGAGCACCAUUUCGCUGCCAGUGAAGAAAUGAACAAAGAAAAUCUGGGCCAGGCAGGCAUCAAAAGAAAUAGUCUUGCGCUCAACCAGAAAGUCUGUAAUCAUCUAAAGGGUA	0.91
GUUAACGGUCAUAGGCCAUGGAAACUAGGAGCACCAUUUCGCUGCCAGUGAAGAAAUGAACAAAGAAAAUCUGGGCCAGGCAGGCAUCAAAAGAAAUAGUCUUGCGCUCAACCAGAAAGUCUGUAAUCAUUUUGAGGGUA	1.15
GUUAACGGUCAUAGGCCAUGGAAACUAGGAGCACCAUUUCGCUGCCAGUGAAGAAAUGAACAAAGAAAAUCUGGGCCAGGCAGGCAUCAAAAGAAAUAGUCUUGCGCUCAACCAGAAAGUCUGUAAUCAUUUUCAGGGUA	1.35
GUUAACGGUCAUAGGCCAUGGAAACUAGGAGCACCAUUUCGCUGCCAGUGAAGAAAUGAACAAAGAAAAUCUGGGCCAGGCAGGCAUCAAAAGAAAUAGUCUUGCGCUCAACCAGAAAGUCUGUAAUCAUUCUAAGGGUG	1.79
GUUAACGGUCAUAGGCCAUGGAAACUAGGAGCACCAUUUCGCUGCCAGUGAAGAAAUGAACAAAGAAAAUCUGGGCCAGGCAGGCAUCAAAAGAAAUAGUCUUGCGCUCAACCAGAAAGUCUGUAAUCAUUCUAAGGGUU	1.65
GUUAACGGUCAUAGGCCAUGGAAACUAGGAGCACCAUUUCGCUGCCAGUGAAGAAAUGAACAAAGAAAAUCUGGGCCAGGCAGGCAUCAAAAGAAAUAGUCUUGCGCUCAACCAGAAAGUCUGUAAUCAUUCUAUGGGUA	2.17
GUUAACGGUCAUAGGCCAUGGAAACUAGGAGCACCAUUUCGCUGCCAGUGAAGAAAUGAACAAAGAAAAUCUGGGCCAGGCAGGCAUCAAAAGAAAUAGUCUUGCGCUCAACCAGAAAGUCUGUAAUCAUUAUAAGGGCA	1.56
GUUAACGGUCAUAGGCCAUGGAAACUAGGAGCACCAUUUCGCUGCCAGUGAAGAAAUGAACAAAGAAAAUCUGGGCCAGGCAGGCAUCAAAAGAAAUAGUCUUGCGCUCAACCAGAAAGUCUGUAAUCAUGUUAAGGGUA	0.76
GUUAACGGUCAUAGGCCAUGGAAACUAGGAGCACCAUUUCGCUGCCAGUGAAGAAAUGAACAAAGAAAAUCUGGGCCAGGCAGGCAUCAAAAGAAAUAGUCUUGCGCUCAACCAGAAAGUCUGUAAUCAUCUUAAGGGCA	0.46
GUUAACGGUCAUAGGCCAUGGAAACUAGGAGCACCAUUUCGCUGCCAGUGAAGAAAUGAACAAAGAAAAUCUGGGCCAGGCAGGCAUCAAAAGAAAUAGUCUUGCGCUCAACCAGAAAGUCUGUAAUCAUCUUAAGGGAA	1.84
GUUAACGGUCAUAGGCCAUGGAAACUAGGAGCACCAUUUCGCUGCCAGUGAAGAAAUGAACAAAGAAAAUCUGGGCCAGGCAGGCAUCAAAAGAAAUAGUCUUGCGCUCAACCAGAAAGUCUGUAAUCAUCUUAAAGGUA	0.88
GUUAACGGUCAUAGGCCAUGGAAACUAGGAGCACCAUUUCGCUGCCAGUGAAGAAAUGAACAAAGAAAAUCUGGGCCAGGCAGGCAUCAAAAGAAAUAGUCUUGCGCUCAACCAGAAAGUCUGUAAUCAUUCUUAGGGUA	1.49
